Measured values published in patent publication US20190161786A1.

Target: wild-type Savinase (Bacillus lentus protease of SEQ ID NO: 3) (Bacillus lentus) (UniProt P41362)
Assay: cell-based or functional assay

UniProt P41362, sequence (P41362 28-380, tags left off): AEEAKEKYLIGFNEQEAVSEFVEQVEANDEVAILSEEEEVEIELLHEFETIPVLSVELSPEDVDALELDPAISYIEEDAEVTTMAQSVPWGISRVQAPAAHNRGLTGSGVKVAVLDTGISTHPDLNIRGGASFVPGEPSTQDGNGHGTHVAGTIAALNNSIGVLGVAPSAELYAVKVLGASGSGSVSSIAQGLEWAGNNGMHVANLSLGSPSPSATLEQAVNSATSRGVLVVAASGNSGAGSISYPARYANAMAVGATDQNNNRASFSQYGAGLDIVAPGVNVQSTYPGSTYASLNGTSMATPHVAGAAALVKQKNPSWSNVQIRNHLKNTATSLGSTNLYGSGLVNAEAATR

- amount of released amplicon A (qPCR of DNA released from alpha-casein-coated microspheres by the expressed protease), compared to the amount released in the absence of ovoinhibitor: 68%
Substance: ovoinhibitor isolated from hen egg white (from UniProt P10184 69-517)
